In the supplement of paper PMC12783771:
± gives the standard deviation of the averaged measurements.

B1: library; numbered along this chain (parent)
chain: MNIQIGELAKRTACPVVTIRFYEQEGLLPPPGRSRGNFRLYGEEHVERLQFIRHCRSLDMPLSDVRTLLSYRKRPDQDCGEVNMLLDEHIRQVESRIGALLELKHHLVELREACSGARPAQSCGILQGLSDCVCDTRGTTAHPSD

Columns and labels:
[1] = variants of: B1; experiment: sfGFP reporter fluorescence (15 h) (µM FITC); higher = higher leak; settings: library round: Round 0; ligand: none
Procedure, shortened: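 An Echo normalized PCR-made linear PbrR templates to 5 nM and assembled 1 μL reactions in BL21 Star (DE3) PANOx-SP extract carrying the pPbrR-sfGFP reporter plasmid and 30 μg/mL GamS. Reactions received 1 µM lead chloride, 30 µM zinc acetate or no metal and stood 15 hr at 30 °C. Fluorescence at 485/528 nm (Synergy Neo2) was converted with FITC standard curves made in 50 mM sodium borate pH 8.5. Endpoint sfGFP signal is given in µM FITC, from up to three biological replicates.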

[2] = variants of: B1; experiment: sfGFP reporter fluorescence (15 h) (µM FITC); higher = stronger transcriptional activation; settings: library round: Round 0
Protocol: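 Cell-free (BL21 Star DE3 extract, PANOx-SP) biosensing: 1 µL Echo-assembled reactions with linear PbrR variant templates (5 nM) and pPbrR-sfGFP reporter, with 1 µM Pb (lead chloride), 30 µM Zn (zinc acetate) or no ligand; endpoint sfGFP fluorescence after 15 h at 30 °C, calibrated as µM FITC. Round 0 library (alanine scan, site saturation, combinatorial) of PbrR from Cupriavidus metallidurans; 2 biological replicates.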

| Variant | sfGFP reporter fluorescence [1] | sfGFP reporter fluorescence ([2]; ligand: 1 µM Pb) | sfGFP reporter fluorescence ([2]; ligand: 30 µM Zn) |
| --- | --- | --- | --- |
| D64T | 0.217 ± 0.0054 | 0.331 ± 0.051 | 2.74 ± 0.3 |
| D64P | 0.0607 ± 0.00078 | 0.076 ± 0.00078 | 0.162 ± 0.0067 |
| D64S | 0.0944 ± 0.0013 | 0.22 ± 0.013 | 3.02 ± 0.097 |
| R33Y | 0.0647 ± 0.0013 | 0.0618 ± 0.0013 | 0.0702 ± 0.0029 |
| R33C | 0.0592 ± 0.00078 | 0.0607 ± 0.0023 | 0.0612 ± 0.0021 |
| R33V | 0.0607 ± 0.00078 | 0.05937 ± 0.00052 | 0.0696 ± 0.0021 |
| R33H | 0.0623 ± 0.00052 | 0.0607 ± 0.0029 | 0.0707 |
| R33G | 0.0577 ± 0.00078 | 0.0575 ± 0.0015 | 0.0599 ± 0.0018 |
| R33P | 0.0607 ± 0.0013 | 0.05956 ± 0.00026 | 0.064 ± 0.00078 |
| R33E | 0.06157 ± 0.00052 | 0.06304 ± 0.00052 | 0.0715 ± 0.0031 |
| K73A | 0.0621 ± 0.0013 | 0.0676 ± 0.007 | 0.42 ± 0.15 |
| P61N G128M | 0.481 ± 0.039 | 1.59 ± 0.34 | 4.72 ± 0.4 |
| L27P | 0.0607 ± 0.0034 | 0.0612 ± 0.001 | 0.0656 ± 0.0026 |
| L27M | 0.0643 ± 0.0018 | 0.0971 ± 0.0036 | 0.743 ± 0.04 |
| L27C | 0.06285 ± 0.00026 | 0.0641 ± 0.001 | 0.142 ± 0.0023 |
| L27S | 0.0623 ± 0.00052 | 0.0621 ± 0.00078 | 0.0647 ± 0.0029 |
| L27D | 0.0627 ± 0.0015 | 0.0603 ± 0.0018 | 0.0574 ± 0.0018 |
| L62R | 0.06377 ± 0.00052 | 0.0643 ± 0.0013 | 0.0704 ± 0.0047 |
| L62I | 0.05992 ± 0.00026 | 0.0883 ± 0.0062 | 0.88 ± 0.14 |
| C134T | 0.06542 ± 0.00026 | 0.0823 ± 0.0049 | 1.21 ± 0.096 |
| C134M | 0.0693 ± 0.001 | 0.09162 ± 0.00052 | 1.28 ± 0.065 |
| M60L K104V G128I | 0.312 ± 0.017 | 1.27 ± 0.04 | 3.28 ± 0.16 |

| Variant | sfGFP reporter fluorescence [1] | sfGFP reporter fluorescence ([2]; ligand: 1 µM Pb) | sfGFP reporter fluorescence ([2]; ligand: 30 µM Zn) |
| --- | --- | --- | --- |
| P61N D64K G128I | 0.452 ± 0.022 | 1.46 ± 0.23 | 3.51 ± 0.073 |
| K104L | 0.0592 ± 0.0049 | 0.135 ± 0.03 | 1.11 ± 0.054 |
| K104C | 0.0614 ± 0.0091 | 0.133 ± 0.026 | 1.32 ± 0.18 |
| K104Q | 0.0601 ± 0.0026 | 0.0832 ± 0.015 | 0.901 ± 0.022 |
| K104W | 0.0574 ± 0.0096 | 0.0795 ± 0.013 | 0.607 ± 0.096 |
| K104E | 0.0552 ± 0.0086 | 0.0691 ± 0.015 | 0.635 ± 0.12 |
| F21P | 0.0619 | 0.0603 ± 0.0018 | 0.0629 ± 0.0018 |
| F21W | 0.0702 ± 0.0013 | 0.124 ± 0.0031 | 0.945 ± 0.029 |
| F21T | 0.0601 ± 0.0015 | 0.06121 ± 0.00052 | 0.06066 ± 0.00026 |
| F21N | 0.0605 ± 0.0015 | 0.0605 ± 0.0021 | 0.06267 ± 0.00052 |
| F21R | 0.0645 | 0.06212 ± 0.00026 | 0.0685 ± 0.0021 |
| E112R | 0.0658 ± 0.00078 | 0.107 ± 0.0088 | 1.53 ± 0.029 |
| C132A | 0.0695 ± 0.0023 | 0.0832 ± 0.0073 | 1.63 ± 0.043 |
| R39S | 0.0607 ± 0.00078 | 0.0603 ± 0.0013 | 0.0592 ± 0.0023 |
| R39P | 0.0581 ± 0.00078 | 0.0597 ± 0.001 | 0.0581 ± 0.0029 |
| R39W | 0.05956 ± 0.00026 | 0.0599 ± 0.00078 | 0.06011 ± 0.00052 |
| R39M | 0.06139 ± 0.00026 | 0.0616 ± 0.0026 | 0.0583 |
| P30G | 0.05699 ± 0.00026 | 0.0665 ± 0.0023 | 0.436 ± 0.021 |
| P15Y | 0.0652 ± 0.0021 | 0.0684 ± 0.0034 | 0.368 ± 0.0021 |
| E109D | 0.0597 ± 0.0021 | 0.0727 ± 0.0023 | 0.674 ± 0.02 |
| E109M | 0.061 ± 0.0013 | 0.0806 ± 0.0057 | 0.957 ± 0.061 |
| R20M | 0.0607 ± 0.00078 | 0.06066 ± 0.00026 | 0.0605 ± 0.0021 |

| Variant | sfGFP reporter fluorescence [1] | sfGFP reporter fluorescence ([2]; ligand: 1 µM Pb) | sfGFP reporter fluorescence ([2]; ligand: 30 µM Zn) |
| --- | --- | --- | --- |
| R20L | 0.06102 ± 0.00026 | 0.0597 ± 0.0026 | 0.0671 ± 0.0047 |
| V82M | 0.0594 | 0.0586 | 0.06212 ± 0.00026 |
| V82C | 0.05956 ± 0.00026 | 0.0588 ± 0.00078 | 0.0898 ± 0.0042 |
| V82P | 0.057 ± 0.00078 | 0.05754 ± 0.00052 | 0.0577 ± 0.0013 |
| V82Q | 0.0579 ± 0.0021 | 0.05699 ± 0.00026 | 0.0552 ± 0.0013 |
| R137A | 0.0579 ± 0.0021 | 0.06524 ± 0.00052 | 0.454 ± 0.062 |
| M60L P61N D64K | 0.611 ± 0.025 | 1.74 ± 0.19 | 3.74 ± 0.11 |
| V108I | 0.0566 ± 0.0013 | 0.0667 ± 0.0026 | 0.508 ± 0.011 |
| V108G | 0.057 ± 0.00078 | 0.0658 ± 0.0049 | 0.567 ± 0.1 |
| V108N | 0.0574 ± 0.0013 | 0.06414 ± 0.00052 | 0.611 ± 0.073 |
| D64K K104V L107C G128M | 3.13 ± 0.25 | 3.98 ± 0.082 | 3.57 ± 0.84 |
| H89D | 0.0623 ± 0.0021 | 0.0669 ± 0.0044 | 0.08283 ± 0.00052 |
| Y22T | 0.05937 ± 0.00052 | 0.06084 ± 0.00052 | 0.06121 ± 0.00052 |
| Y22K | 0.0625 ± 0.0018 | 0.0627 ± 0.001 | 0.0614 ± 0.0029 |
| Y22V | 0.06359 ± 0.00026 | 0.0614 ± 0.00078 | 0.0641 ± 0.0021 |
| P143M | 0.05736 ± 0.00026 | 0.0799 ± 0.001 | 0.812 ± 0.12 |
| P143S | 0.0566 ± 0.0023 | 0.07568 ± 0.00026 | 0.842 ± 0.05 |
| P143Y | 0.05846 ± 0.00026 | 0.0834 ± 0.0039 | 0.73 ± 0.013 |
| P143V | 0.0559 ± 0.0013 | 0.0726 ± 0.0026 | 0.757 ± 0.14 |
| P143G | 0.05351 ± 0.00052 | 0.06945 ± 0.00026 | 0.71 ± 0.092 |
| C123F | 0.0564 ± 0.0015 | 0.0577 ± 0.00078 | 0.0528 ± 0.0015 |
| C123V | 0.05589 ± 0.00026 | 0.0579 ± 0.0015 | 0.0541 ± 0.0018 |

| Variant | sfGFP reporter fluorescence [1] | sfGFP reporter fluorescence ([2]; ligand: 1 µM Pb) | sfGFP reporter fluorescence ([2]; ligand: 30 µM Zn) |
| --- | --- | --- | --- |
| C123K | 0.0592 ± 0.0039 | 0.0597 ± 0.001 | 0.0574 ± 0.0029 |
| C123N | 0.0599 ± 0.0018 | 0.0561 ± 0.0015 | 0.05498 ± 0.00052 |
| H105A | 0.0623 | 0.0687 ± 0.0044 | 0.769 ± 0.086 |
| M1A | 0.0618 ± 0.0029 | 0.0715 ± 0.0047 | 0.124 ± 0.0015 |
| V16L | 0.06249 ± 0.00026 | 0.0825 ± 0.0021 | 0.56 ± 0.022 |
| R118A | 0.0676 ± 0.0018 | 0.0665 ± 0.00078 | 0.168 ± 0.026 |
| Y41I | 0.0575 ± 0.0015 | 0.0572 ± 0.0021 | 0.0623 ± 0.0031 |
| Y41N | 0.0594 ± 0.0031 | 0.0601 | 0.0597 ± 0.0015 |
| Y41Q | 0.0581 ± 0.0023 | 0.0597 | 0.0574 ± 0.0054 |
| Y41R | 0.0618 ± 0.0013 | 0.0623 ± 0.001 | 0.0643 ± 0.0013 |
| Y41E | 0.0607 ± 0.00078 | 0.0625 ± 0.00078 | 0.0619 ± 0.0015 |
| M60L L107C G128I | 2.19 ± 0.17 | 3.42 ± 0.14 | 2.98 ± 0.17 |
| C114N | 0.0583 ± 0.0021 | 0.0579 ± 0.0015 | 0.0546 ± 0.0015 |
| C114G | 0.052 ± 0.0015 | 0.0541 ± 0.00078 | 0.05 ± 0.00078 |
| C114S | 0.05754 ± 0.00052 | 0.05809 ± 0.00026 | 0.0544 ± 0.0018 |
| D76A | 0.06157 ± 0.00052 | 0.0614 ± 0.0034 | 0.202 ± 0.013 |
| L107K | 0.0561 ± 0.0057 | 0.05864 ± 0.00052 | 0.0861 ± 0.0026 |
| Y71A | 0.05974 ± 0.00052 | 0.0575 | 0.22 ± 0.0036 |
| E44A | 0.0612 ± 0.0015 | 0.0746 ± 0.0013 | 0.495 ± 0.044 |
| D64K L107C G128M | 6.27 ± 0.28 | 5.91 ± 0.52 | 4.866 ± 0.045 |
| I125V | 0.0583 | 0.0627 | 0.183 ± 0.0036 |
| I125G | 0.0546 | 0.0559 ± 0.00078 | 0.0504 ± 0.0029 |
